Measured values taken from paper PMC11355779.

What was measured:
[1] = target: ClC-3c, C-terminally GFP-tagged (mouse)
[2] = target: ClC-3c, C-terminally GFP-tagged (mouse); assay: FRET or BRET; FLIM-FRET in co-transfected HEK293T cells 24 h after transfection; GFP donor (488 nm), mCherry acceptor; efficiency from the donor lifetime (phasor plot) against donor-only cells

Chain of ClC-3c, C-terminally GFP-tagged (mouse) (P51791 whole entry): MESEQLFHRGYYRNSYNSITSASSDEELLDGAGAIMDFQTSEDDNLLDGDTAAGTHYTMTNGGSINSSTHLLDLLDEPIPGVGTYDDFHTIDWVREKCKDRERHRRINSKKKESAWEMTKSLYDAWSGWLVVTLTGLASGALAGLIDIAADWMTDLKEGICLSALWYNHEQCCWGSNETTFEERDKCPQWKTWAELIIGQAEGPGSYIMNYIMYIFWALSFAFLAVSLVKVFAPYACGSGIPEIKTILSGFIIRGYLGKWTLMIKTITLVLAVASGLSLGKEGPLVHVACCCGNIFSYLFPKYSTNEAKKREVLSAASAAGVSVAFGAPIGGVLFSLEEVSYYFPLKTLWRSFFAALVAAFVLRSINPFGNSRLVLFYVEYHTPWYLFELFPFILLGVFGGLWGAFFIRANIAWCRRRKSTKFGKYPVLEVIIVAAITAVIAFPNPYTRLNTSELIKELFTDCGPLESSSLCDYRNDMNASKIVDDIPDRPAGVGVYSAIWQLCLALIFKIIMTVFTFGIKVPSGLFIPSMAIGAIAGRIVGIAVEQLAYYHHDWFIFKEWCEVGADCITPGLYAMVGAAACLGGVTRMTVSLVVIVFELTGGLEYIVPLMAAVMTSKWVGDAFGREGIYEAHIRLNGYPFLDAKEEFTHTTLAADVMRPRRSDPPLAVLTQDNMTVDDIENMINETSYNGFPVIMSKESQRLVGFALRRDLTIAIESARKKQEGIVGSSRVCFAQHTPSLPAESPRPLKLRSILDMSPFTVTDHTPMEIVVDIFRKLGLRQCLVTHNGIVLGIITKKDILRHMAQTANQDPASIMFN

TMEM9 Domain Family Member B (TMEM9B), C-terminally mCherry-tagged (from UniProt Q9JJR8 35-199) (natural protein)
fast time constant of ClC-3 current activation in HEK cells co-transfected with TMEM9B (double exponential fit, 500 ms pulses) [1]: 21 ms | reduction of ClC-3 activity (whole-cell currents) in HEK cells by co-expression of TMEM9B [1]: 70% | slow time constant of ClC-3 current activation in HEK cells co-transfected with TMEM9B (double exponential fit, 500 ms pulses) [1]: 120 ms | FRET efficiency [2]: 0.17
